The assay concerns the target T1, Protein L (recombinant protein L immobilized on a matrix; HiTrap Protein L, GE Healthcare) (Finegoldia magna).
T1 construct: also called Protein L resin; Finegoldia magna Protein L
T1 chain: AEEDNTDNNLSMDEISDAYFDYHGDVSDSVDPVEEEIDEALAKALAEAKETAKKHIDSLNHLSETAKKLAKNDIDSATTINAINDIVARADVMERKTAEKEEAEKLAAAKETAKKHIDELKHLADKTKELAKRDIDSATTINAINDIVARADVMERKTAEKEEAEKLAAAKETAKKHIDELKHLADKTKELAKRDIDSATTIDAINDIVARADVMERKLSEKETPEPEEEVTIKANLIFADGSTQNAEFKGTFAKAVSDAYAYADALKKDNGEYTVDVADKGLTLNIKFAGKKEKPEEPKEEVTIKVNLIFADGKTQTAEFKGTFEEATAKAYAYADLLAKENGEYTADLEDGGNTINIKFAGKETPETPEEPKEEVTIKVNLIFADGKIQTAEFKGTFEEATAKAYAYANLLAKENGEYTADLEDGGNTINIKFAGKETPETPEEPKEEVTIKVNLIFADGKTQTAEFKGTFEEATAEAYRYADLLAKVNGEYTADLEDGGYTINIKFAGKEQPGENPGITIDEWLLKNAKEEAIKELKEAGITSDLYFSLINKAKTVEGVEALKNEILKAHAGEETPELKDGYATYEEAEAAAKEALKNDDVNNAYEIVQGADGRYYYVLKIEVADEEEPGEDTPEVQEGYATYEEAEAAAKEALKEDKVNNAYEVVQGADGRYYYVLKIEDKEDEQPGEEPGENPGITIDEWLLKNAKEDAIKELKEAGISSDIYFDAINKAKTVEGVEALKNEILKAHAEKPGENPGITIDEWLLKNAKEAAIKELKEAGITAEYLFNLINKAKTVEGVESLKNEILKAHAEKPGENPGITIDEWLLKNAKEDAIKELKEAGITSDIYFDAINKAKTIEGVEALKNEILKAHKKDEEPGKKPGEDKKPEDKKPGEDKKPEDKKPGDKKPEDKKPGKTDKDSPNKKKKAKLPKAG
The experiment in a line: HiTrap Protein L (5 mL) chromatography of purified antibody, step elution at pH 3.5, 3.0 and 2.5, A280 trace.

Description: 10 mL of the supernatant was loaded onto the HiTrap Protein L column. […] The column was washed with PBS and specifically bound material was eluted sequentially with 0.1 M glycine-HCl pH 3.5, 3.0 and 2.5 and neutralized with a few drops of 2M Tris pH 9.0. The column was washed using 15 mM sodium hydroxide.

B1: IgG1-2F8-F405L-S12P (antibody, name in EU numbering)
heavy: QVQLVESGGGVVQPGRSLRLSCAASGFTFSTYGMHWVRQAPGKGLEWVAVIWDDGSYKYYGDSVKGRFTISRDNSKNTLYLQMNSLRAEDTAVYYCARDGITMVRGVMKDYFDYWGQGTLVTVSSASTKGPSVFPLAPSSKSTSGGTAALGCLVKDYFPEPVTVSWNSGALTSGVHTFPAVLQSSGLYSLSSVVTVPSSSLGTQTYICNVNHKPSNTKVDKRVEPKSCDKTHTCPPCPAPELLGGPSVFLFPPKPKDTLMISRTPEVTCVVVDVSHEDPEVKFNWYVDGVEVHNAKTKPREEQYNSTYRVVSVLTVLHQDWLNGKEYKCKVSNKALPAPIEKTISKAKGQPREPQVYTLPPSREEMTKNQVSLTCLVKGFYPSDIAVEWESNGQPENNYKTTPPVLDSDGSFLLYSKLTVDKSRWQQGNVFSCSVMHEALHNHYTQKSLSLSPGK
light: AIQLTQSPSSLPASVGDRVTITCRASQDISSALVWYQQKPGKAPKLLIYDASSLESGVPSRFSGSESGTDFTLTISSLQPEDFATYYCQQFNSYPLTFGGGTKVEIKRTVAAPSVFIFPPSDEQLKSGTASVVCLLNNFYPREAKVQWKVDNALQSGNSQESVTEQDSKDSTYSLSSTLTLSKADYEKHKVYACEVTHQGLSSPVTKSFNRGEC
notes: IgG1m(f), kappa; also called IgG-2F8-F405L-S12P; IgG1-2F8-S12P
Turning to B1, the binding result was “no binding”.

For the origin of these results see US20210269509A1 (Genmab, published 2021).
